Legend:
[1] = biological target: recombinant human FcγRIIb (human) (UniProt P31994); test: SPR (Biacore), global Langmuir fit
[2] = biological target: FcγRIIb on the cell surface (UniProt P31994); test: binding to cell-surface FcγRIIb (cells and method not stated)

Fold (KD(Native IgG1)/KD(variant)) [1]: 150 fold
Kd [1]: 12 nM
EC50 [2]: 2 nM
Fold (cell surface EC50 against native IgG1) [2]: 220 fold
Substance: S239D/S267E (antibody)

Source: patent WO2011097527A2
